Results taken from the nanobody polyreactivity screen of Harvey et al. (2022).

Assay: yeast display, Sf9 membrane polyspecificity reagent, FACS + sequencing; frameworks hold sequencing errors
Outline: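 A nanobody's polyreactivity label depends on the gate it was sorted from. Yeast display cells were stained with 10% biotinylated, detergent-solubilized Sf9 membrane reagent for 1 hour at 4 °C, enriched on streptavidin microbeads and sorted by FACS. The low and high (top ~1%) gates were set on anti-HA fluorescence for expression and streptavidin fluorescence for reagent binding.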

QVQLVESGGGLVQAGGSLRLSCAASGRIFSYYAMGWYRQAPGKERELVAAISNGGNTYYADSVKGRFTISRDNAKNTVYLQMNSLKPEDTAVYYCYVRRYDYWGQGTQVTVSS
polyreactivity (PSR sort gate): high polyreactivity

QVQLVESGGGLVQAGGSLRLSCAASGSIFWRYAMGWDRQAPGKERELVATITSRGGSTYYADSVKGRFTISRDNAKNTVYLQMNSLKPEDTAVYYCAATGLPGYYAYDYWGQGTQVTVSS
polyreactivity (PSR sort gate): low polyreactivity

QVQLVESGGGLVPAGGSLRLSCAASGSIFKINAMGWYRQAPGKERELVATITWSTGTTYYADSVKGRFTISRDNAKNTVYLQMNSLKPEDTAVYYCATDGDSTKLDYWGQGTQVTVSS
polyreactivity (PSR sort gate): low polyreactivity

QVQLVESGGGLVQAGGSLRLSCAASGRTFGGNSMGWYRQAPAKERELVAAISRGGSTKYADSVKGRFTISRDNAKNTVYLQMNSLKPEDTAVYYCAASPKFHYDYWGQGTQVTVSS
polyreactivity (PSR sort gate): low polyreactivity

QVQLVESGGGLVQAGGSLRLSCAASGITFYYYTMGGYRQAPGKERELVAGITRGGRTYYADSVKGRFTISRDNAKNTVYLQMNSLKPEDTAVYYCNADPWWRFDYWGQGTQVTVSS
polyreactivity (PSR sort gate): low polyreactivity

QVQLVESGGSLVQAGGSLRLICAASGITFWPYAMGWYRPAPGKERELVAAINSGGDTYYADSVKGRFTISRDNAKNSVYLQMNILKPEDTAVYYCAKGRDWADEEGYEYWGQGTQVTVSS
polyreactivity (PSR sort gate): low polyreactivity

QVQLVETGGGLVQAGGSLRLSCAASGITSRPYVMGWYRQAPGKERELVAAISLTGGRTYYADSVKGRFTISRDNAKNTVYLQMNSPKPEDTAVYYCAAARSPYKYSYWGQGTQVTVSS
polyreactivity (PSR sort gate): high polyreactivity

QVQLVESGGGLVQAGGSLRLSCAASGSIFKGYAMGWYRQAPGKERELVAAISIRGGSTYYADSVKGRFTISRDNAKNTVYLQMNSLKPEDTAVYYCAASSKRKYLYNYWGQGTQVTVSS
polyreactivity (PSR sort gate): high polyreactivity

QVQLVESGGGLVQAGGSLRLSCAASGSIFGPNAMGWYRQAPGKERELVAAITSGSSTKYADSVKGRFTISRDNATNTVYLQMNSLKPEDTAVYYCAASGTSTWKYGYWGQGSQVTVSS
polyreactivity (PSR sort gate): low polyreactivity

QVQLVESGGGLVQAGGSLRLSCAASGSIFDAYVMGWYRQAPGKERELVAAISRSGGSTYYADSVKGRFTISRDNAKNTVYLQMNSLKPEDTAVYYCAAEKIRSSPYRYDYWGQGTQVTVSS
polyreactivity (PSR sort gate): low polyreactivity

QVQLVESGGGLVQAGGSLRLSCAASGFTFPFYAMGWYRQAPGKERELVAAITSRGGSTYYADSVKGRFTISRDNAKNTVYLQMNSLKPEDTAVYYCAADESGADYYYWGQGTQVTVSS
polyreactivity (PSR sort gate): high polyreactivity

QVQLVESGGGLVQAGGTLRLSCAASGRIFGYNDMGWYRQAPGKERELVAAINRTGGSTYYADSVKGRFTISRDNAKNTVYLQMNSLKPEDTAVYYCNADARTKWVQTHTDFITDYDYWGQGTQVTVSS
polyreactivity (PSR sort gate): low polyreactivity

QVQLVESGGGLVQAGGSLRLSCAASGRIFYVYGLGWYRQEPGKERELVAAISKRGDNTYYADSVKGRFTISRDNSKNTVYLQMNSLKPEDTAVYYCKVKRYGGRSDYWGQGTQVTVSS
polyreactivity (PSR sort gate): high polyreactivity

QVHLVESGGGLVQAGGSLRLSCASSGYIIKYNAMGWYRPAPGKERELVAAISSIGGRTYYADSVKGRFTISRDNAKNTVYLQMNRLKPEDTAVYYCNAVGGRYTGWRYDDWGQGTQVTVSS
polyreactivity (PSR sort gate): high polyreactivity

QVQLVESGGGLVQAGGSLRLSCAASGRILSWYAMGWYRQAPGKVRELVAAIDSGGRTNYADSVKGRFTISRDNAKNTVYLQMNSLKPEDTAVYYCAKEGYWPRYWERYDYWGQGTQVTLSS
polyreactivity (PSR sort gate): low polyreactivity

QVQLVESGGGLVQAGVSLRLSCAASGSTLYGYAMGWYRQAPGKERELVAAINTGGSTNYADSVKGRFTISRDNSKNTVYLQMNSLKPEDTAVYYCAASYSLTFWDKDDYWGQGTQVTVSS
polyreactivity (PSR sort gate): low polyreactivity

QVQLVESGGGLVQAGGSLRLSCAASGRISSVYAMGLYRQAPGKERELVAGITWSDARTYYADSVKGRFTISRDNAKNTVYLQMNSLKPEDTAVYYCAADYYYYERDYWGQGTQVTVSS
polyreactivity (PSR sort gate): low polyreactivity

QVHLVESGGGLVQAGGSLRLSCAASGRILTSNAMGWYRQAPGKERELVAAISWSGGSTYYADSVKGRFTISRVNAKNTVYLQMNSLKPEDTAVYYCAAPFTTTFDYWGQGTLVTVSS
polyreactivity (PSR sort gate): low polyreactivity

QVQLVESGGGLVQAGGSLRLICAASGIIFFDYAMGWYRQAPGKEREMVAAISSGGGNTYYADSVKGRFTISRDNAKNTVYLQMNSLKPEDTAVYYCAAEPYIYGEQGAYDYWGQGTQVTVSS
polyreactivity (PSR sort gate): low polyreactivity

QVQLVESGGVLVQAGGSLRLSCAASGSTFDSYAMGWYRQAPGKERELVAAISYGGGSTYYADSVKGRFTISRDNAKNTVYLQMNSLKPEDTAVYYCAARNARGVVGRTESKVTYDYWGQGTQVTVSS
polyreactivity (PSR sort gate): high polyreactivity

QVQLVESGGRLVQAGGSLRLSCAASGFIIVFYDMGWYRQAPGKERELVAGITRNDGSTYYADSVKGRFKISRDNAKNTVYLQMNSLKPEDTAVYYCAADRVRRNDKLAYDYWGQGTQVTVSS
polyreactivity (PSR sort gate): low polyreactivity

QVQLVESGGGLVQAGGSLRLSCAASGLIFAWYAMGWYRQAPGKERELVAAITGTGSSTYYADSVKGRFTISRDNAKNTVYLQMNSLKPEDTAVYYCNRGYFNSRTPTFDYWGQGTQVTVSS
polyreactivity (PSR sort gate): low polyreactivity

QVQLVESAGGLVQAGGSLSLSCAASGSIFIWYAMGWDRQAPGKERELVAAIRSGGSTYYADSVKGRFTISRDNAKNTVYLQMNSLKPEYTAVYYCAKVLTWRGYRYNYWGQGTQVTVSS
polyreactivity (PSR sort gate): low polyreactivity

QVQLQESGGGLVLAGGSLRLSCADSGYISWSFTMVWYRKAPGKEREFVAGITYGGITYYADSVKGRFTISRDNAKNTVYLQMNSLKPEDTAVYYCAAPQTYPYVYVYWGQGTQLTVSS
polyreactivity (PSR sort gate): high polyreactivity

QDQLVESGGGLVQAGGSLRLSCAPSGSIFYRNAMGWYRQAPGKERELVAAIRYSGDNTYYADSVKGRFTISRDNSKNTVYLQMNSLKPEDTAVYYCAADFPDYEYWGQGTQVTVSS
polyreactivity (PSR sort gate): high polyreactivity

QVQLVESGGGLVQAGGSLRLICAATGSIFPVYAMVWSRQAPGKEREFVARIRFSGGRTYYADSVKGRYTISRDNAMNTVYLQMNSLKPEDTAVYYCAKDFRGYRWSYYWGQGTQVTVSS
polyreactivity (PSR sort gate): high polyreactivity

QVQLVESGGGLVQAGGSLRLSCAASGRTFLAYAMGWYRQAPGKERELVAAISKSGGRTYYADSVKGRFTISRDNAKNTVYLQMNSLKPEDTAVYYCAADKQAYVTDDYWGQGTQVTVSS
polyreactivity (PSR sort gate): high polyreactivity

QFQLVDSGGGLVQAGGSLRLSCAASGRTFWFYGMGWYRQAPGKEREFVARISGSGGSKYYADSVKGRFTITRDNAKNTVYFQMNSLKPEDTAVYYCAKDNRYPYPSGLDYWGQGTQVTVSS
polyreactivity (PSR sort gate): high polyreactivity

QVQLVESGGGLVQAGGSLRLSCAASGFNCATNYMGWYRQAPGKERELVAAITKGGGRTYYADSVKGRFTISRDNAKNTVYLQMNSLKPEDTAVYYCAARQLIKYDYWGQGTQVTVSS
polyreactivity (PSR sort gate): low polyreactivity

QVQLVESGGGLVQAGGSLRLSCAASGFTFGGYAMGWYRQAPGKERELVAAISRSGGSTSYADSVKGRFTISRDNAKNTVYLQMNSLKPEDTAVYYCATLWTTKYWGQGTQVTVSS
polyreactivity (PSR sort gate): high polyreactivity

QVQLVESGGGLVQAGGSLRLSCAASGFTFYPYAMGWYRQAPGKERELVATISSGGTTNYADSVKGRFTISRDNAKNTVYLQMNSLKPEDTAVYYCAADYIRLFGPFDYWGQGTQVTVSS
polyreactivity (PSR sort gate): low polyreactivity

QVQLVESGGGLVQAGGSLRLSCAASGNTFWLNAMGWYRQAPGKERELVASISYSGASTYYADSVKGRFTISRDNAKNTVYFQMNSLKPEDTAVYYCNTDGDDFFHVIYDYWGQGTQVTVSS
polyreactivity (PSR sort gate): low polyreactivity
